# Assay results reported in the DeepSol protein solubility set.
# Assay: soluble on expression in E. coli; label from the status in PepcDB or PDB records
row,Sequence,soluble on expression in E. coli
1,MGSDKIHHHHHHMDMNQGGLISLSPHAQVLLRPEGIQFGLDSANAGIFAAPESLIVAIVQVLRGFWQPIAKTTAIEQLTEAGLQPVAARGLIDDLLHHRVLSIVERNLTVAVGGFGPLVAPIKAVLGCAGISVVQAHTIQRCMTLESLLSREVPLIWINSTPSFSHIAQELVEVKTMIPVGLMDNHAIIGPVRIDGRGPCGLCTDLYRSDADPQWPALLKNATAPLTAPAALTYATAARVTRLVEQLSEPRQRVTVTAGLVIRVSSDGELSSEIMSPHSRCPLCWSSRWDCDPLTGTEQAFLADLGQNVLL,not soluble
2,MGSDKIHHHHHHMDMQQLKPSREHDAPLYLQLYRRYRDAIIARKLHPGDRVPSVRSLASELNLARGTVEMAYQMLASEGYFLTRGPAGTIVSPQLEKLTESGYSTTSLSQIPSRPQIETAQVQPFQLGLPALDAFPRKTWARLAGHNLRTLDTAAMISPDPAGYEPLRRAIATYLGISRGITCTHEQVFITAGYRGALELVCRTLLQPGDIGWFEDPGYIFARQFLARAGMHLEPVPVDEEGLNVDIGQQRAAEARFAVVTPTHQSPMGMALSLPRRLQLLEWASHHRSWIIEDDYDSEFRYHGRPLPALKSLDRDGRVLYTGTFSKVLFPGLRLAYLVVPEPQIERFRDTANHFCCAGSILPQATVANFMEQGHFARHLRRMRSLYAIRRGYLVDELLQALGSHLTVQPQAGGIHVLATLTARGNDQSLAAAAQSHGLAIQALNDWRTSKTSRGGLLMGFTNVTEPAMAKALVHRLAAAIGLS,not soluble
3,MGSDKIHHHHHHMDNPRSIRVHASELEVGRPLSWAVYDENGVLLLNKGMAPATEAQIIAMLQRGVFRQPGSGVGAGAAGSKSAIPPMGLGPSEDESKTRLTGDPIPFDDLAMQPGEVLQLHPALEVVAADVPAVLIGYLKDRAIVVATPMVSGKPLLVKDGTLFNIKTFSGTSLYNFRTRVLASHSHPMPHLHLEYPRLVCQTKIRKALRALTDLPATLLNPASGDSRDVVLKDLSVGGAKIVLPEPVTCAKGDPFVVGFRIKIGDDLEEAIRADAVMCSAESRTGKETTVHTMSVQFKELPKSTSLAIMALVYRLQLRKG,not soluble
4,MGSDKIHHHHHHMDREIFVSYSVSANSIAGWVAYGGSESFHDMSRGILAARIGIPRLLRMFRKFCIKSSWYVPGIVMETFPDEVRAIYADGHELGTHGYLHEYAPSMSYDQEERVIAKTAELVKDITGHNPYGHLPSQWEESVNTMRILMNHGYKYARGLEDDDFHPFYASTGRSWPRVDYSKLPETWMKPMNLGEKIDFVEIPINWFLNDGTYFNFNKHVPGKRPMSLSEVLENWKAAFDYVYREYEYAIFPVNIHPDTSGNPEVQIFHEKFISYILEHNGASFVSDSFIAEDFRKRYPFPHEFREKVDL,not soluble
5,MGSDKIHHHHHHMDRIQEMTLFAALAGQTSFTGVARHVGLSTATVTRAVASLESRLGILLVVRTTRNMRLTKAGQRFAEDCRRLLADLSEAENAAAGVHALPAGTLTVTAPQMFGALHVTPVLTRFLSEYPAVDIRAILVDRVVSMLDEGVDVAVRIGALRDSSLTAIRVGSVRRMVCASPVYLTQHGTPRHPDDLQQHATISTSAPERPPHWAFRVDDQDYSVNVASRLSLTSFQASINAALQHWGLTQVPHYQIREHLHNGRLVCVLEDFEIAPEPVHVVYSEGRRGSSRVRSFVDFCVSALREDLQFEAAG,not soluble
6,MGSDKIHHHHHHMDRVQAMRVFVAVVDCGGFTRAAQQLQLPRATVSSAVQQLEAQLGARLLHRTTRRVQLTLDGGTFYERCQQLLADFDELESLFSQQGASPRGKLRIDVPGPIGRQVLAPALPEFFRLYPGIELELGVTDRPVDLIQEGVDCVIRVGALAESRLVARRIGMLPQGNYASPDYLAAFGAPASPDALAGHRAVNYASPSTGKVFAWEYLQDGERRELALQSLVSVNQVESYIACALAGLGMIQLPRYDAEPHVAAGALVEVLADWPPPAMPVSVLYPHRRHLSRRVQVFVEWAGALLRERLRLGA,not soluble
7,MGSDKIHHHHHHMDSAYVFDSEQATKLLMKNYELVKTSGVSFIDKRIRFLIARLFAGNNEVVDPEEFSEINKEIKRQLGMFTALNGNVRASLVGLLMANDNASRESVQQVIANYNTLIQAGFQRTEYTYFAAYLLLESENPKKTARKAKTIHQLFKKDHPFLTKSEDVTTAVFLANLPEENTTKLAEITEYYFQEFAAKGFRKNDSLQFLATTGTLLYGEKDSKFIRRVDNIVEELRQKGIKVKPLHYSSIGILAFVMDARKIDSGLVNLIDELQQQPGLRFGREFVTALAISLYTEKQSGQMSKEQLEGLMVNVHILIAMEQAAAVSAAAAASAAAASS,not soluble
8,MGSDKIHHHHHHMDTLFTINACKTFGCRNLGLPSAAEYHFPNFRLGYPALYCAACGSYPPLFNEREFRPWLAAYLTDHARRYGYFCPVCYQRDIIRYGRNPQGTQRLQCRHCKKVWTPKFPHIAPIEAPRRICSVPLIAPFQGNAAGQKLYFLLSFDAVRGNVIHLTSNFTPFAVGESLRYRWRGGQADREETDDIIQRISLTEMRFLQRSQFDEIQYGSAMQKRHARGNILRPVIAAHGHFKLLSQRFPEVKTHVIAHECFLRGAAIVAWAPLFRQRQGDLWYVEEEIRNPASPAPWQLLGKTHHGWWQNSWQRWTQEENQKMVCRLAGTVEENAFLPDLAASRRFTIWLKNRPAFAQSALYSAGRVTQIVASLVQEYNATLTAAAPGG,not soluble
9,MGSDKIHHHHHHMDVNEIRENAKKLMELMMLDKPFVAVKLAKSKEEIPEGYETLDEEKRHCEMIQMARLERKKLYATVDKHLCKGGAYAMGVFRNPPEPLATGKLYVKLGNFKDEEAAKKTVDAIPKVEEEIYATVYAPLDETDFIPDSIVFIGEPLYALRLVQAILYHKGGRFQADFSGIQSLCADAVAAVYTRKAPNMTLGCNGSRKYAGIKPEEVVVAFPPEKLKDIVEAIEHFRQVWTCGH,not soluble
10,MGSDKIHHHHHHMDVWKVLGRYSNVLVLSKKNSILILEINGKAPKPGESVRVWNNRVMTGKELKAKLLAHFDEELSLKVLKVPGLLEFLHDISRGFDKKYVHFVKLFVKHLVPSRFLKMNNEEKKIIMKSFPEVFESGPSSVRIRFSVKSFFEYVQKNFPINRNINEEALRRTVTLKRPILSTEEYDVYQMNEPLSKGFAGKNYMALPLSGKYLIVVFRRRNFPFVEFKLKEEPDLTFFEDFVNDKVAVEKRENGWVLIWKDREMMEFELPDKELLPRPEKLVDDDLLDAVFLLNSLLEENVRFASMPSFGVQEMWWEKDNNRVILVVNTVRFGRVVADVILEGRSLSVRFYAEKNSEELSAHSEELQKEFERLGLIAHVFFLRKDPMNWEGFNAYG,not soluble
11,MGSDKIHHHHHHMDYTPRLQPARLIKRYKRFLADVVTPEGETLTLHCANTGAMTGCATPGDTVWYSTSDNPKRKYPQSWELTETQQNHWICVNTLRANTLLYEALLENRIEELAGYSDIKTEVKYGTENSRIDLLLQAPDRIDCYIEVKSVTLLQHECGYFPDAVTLRGQKHLRELQQMVSNGKRAVLFFAVLHSGIQQVSPARHIDSRYAELFIEAQQAGVEILCYGSTLCPDGIKLTNKLPLLG,not soluble
12,MGSDKIHHHHHHMEAAAQFFVESPDVVYGPEAIEAQYEYRTTRVSREGGVLKVHPTSTRFTFRTARQVPRLGVMLVGWGGNNGSTLTAAVLANRLRLSWPTRSGRKEANYYGSLTQAGTVSLGLDAEGQEVFVPFSAVLPMVAPNDLVFDGWDISSLNLAEAMRRAKVLDWGLQEQLWPHMEALRPRPSVYIPEFIAANQSARADNLIPGSRAQQLEQIRRDIRDFRSSAGLDKVIVLWTANTERFCEVIPGLNDTAENLLRTIELGLEVSPSTLFAVASILEGCAFLNGSPQNTLVPGALELAWQHRVFVGGDDFKSGQTKVKSVLVDFLIGSGLKTMSIVSYNHLGNNDGENLSAPLQFRSKEVSKSNVVDDMVQSNPVLYTPGEEPDHCVVIKYVPYVGDSKRALDEYTSELMLGGTNTLVLHNTCEDSLLAAPIMLDLALLTELCQRVSFCTDMDPEPQTFHPVLSLLSFLFKAPLVPPGSPVVNALFRQRSCIENILRACVGLPPQNHMLLEHKMERPGPSLKRVGPVAATYPMLNKKGPVPAATNGCTGDANGHLQ,not soluble
13,MGSDKIHHHHHHMEDKLISRYDILVNRYKELVSEKLSRKDFIEYNEILFSAHSCAIEGNSFSVDETRTLKEKGLGMIPKGKTLLEAFEILDHFQAYEYLLKNLDRPLTEELLKETHRLLTEHTLSYKTQYDEIPSNPGEYTTVDMCAGDTIFGDHEQLIKQVPRLLQSTQQVLDSGKIHPMIIAARFHGFYEYLHPFRDGNGRLGRLMSNFILLKKEQPLLIIPGSQREEYITALKYIKKERTDEFLIDFFFRTSIKRMEQEIEEKKNLTENFIRGMEFVRNVKSSNDDISEI,not soluble
14,MGSDKIHHHHHHMEEQREILEQLKKTLQMLTVEPSKNNQIANEEKEKKENENSWCILEHNYEDIAQEFIDFIYKNPTTYHVVSFFAELLDKHNFKYLSEKSNWQDSIGEDGGKFYTIRNGTNLSAFILGKNWRAEKGVGVIGSHVDALTVKLKPVSFKDTAEGYGRIAVAPYGGTLNELWLDRDLGIGGRLLYKKKGTNEIKSALVDSTPLPVCRIPSLAPHFGKPAEGPFDKEDQTIPVIGFPTPDEEGNEPPTDDEKKSPLFGKHCIHLLRYVAKLAGVEVSELIQMDLDLFDVQKGTIGGIGKHFLFAPRLDDRLCSFAAMIALICYAKDVNTEESDLFSTVTLYDNEEIGSLTRQGAKGGLLESVVERSSSAFTKKPVDLHTVWANSIILSADVNHLYNPNFPEVYLKNHFPVPNVGITLSLDPNGHMATDVVGTALVEELARRNGDKVQYFQIKNNSRSGGTIGPSLASQTGARTIDLGIAQLSMHSIRAATGSKDVGLGVKFFNGFFKHWRSVYDEFGEL,not soluble
15,MGSDKIHHHHHHMEFSLERDEARLVEIASIQETYGTFLIEHLDEKTAIISGSWDPLRRCAFVNYVGLIVGEAEDLSAFQEGLPAGKFYIRYRDIDGDKPMSEAAIGDMLKARGRVSFRDPDYVVRVVHHGIFYVTKVVYERDKKQFIERKAPRRPFFSPVSMDPKYARFLVNTAHVRENQLLIDPFCGTGGILIEAALMGIRVIGNDVALSMAAGARTNLKHFHVEDFHIYNMDVSDLPVRDVDGIATDMPYGRNSYASEDLEVLYERSFRKFHEMLKPHGYASFVVSDPDLAELARPFFNIVHDVPVYQHRSLTRHFITAMRKD,not soluble
16,MGSDKIHHHHHHMEGGAMMLLEVKNVTKKFGDKVVLKNISFTLEEGESLGILGKSGAGKSVLLHMLRGMDGYEPTEGQIIYHVSYCEKCGYVDVPSKAGTPCKKCGNELKKIEVDFWNDKKYTYNLKRKIAIMLQRTFALYGEKTVLENILEALHQAGYEGKEAIDMALKLIKMVKLEHRITHIARDLSGGEKQRVVLARQIAKEPFIFLADEPTGTLDPQTAKLVHSALKELVIKNKISLILTSHWPEVIAELTEKAIWLDKGEIIMEGTSEEVVNKFMETVKEFKKPETEVEIKEDIIKLENVSKHYCSVERGVIKAVDNVTLNIREREIFGLVGTSGAGKTTLAKIIAGVLPPSKGKYWFRVGDEWVDMTKPGPMGRGRAKRYIGILFQEYALYPHRTILENLTEAIGLELPDEFARMKAVYTLVSVGFSEEEAEEILDKYPHELSVGERHRCALAQVLIKEPRVVILDEPTGTMDPITRNTVAESIHKSRIELEQTYIIVSHDMDFVLNVCDRAGLMRNGKLIKVGKPEEIVALLTEEEKQEMFGQK,not soluble
17,MGSDKIHHHHHHMEGIKMRSVVVKEPGQLNIESRPVPVPGAHEVRVKIAFAGICGSDVHIYHGHNPFAKYPRVIGHEFYGIIDAVGEQVSPARIGERVAVDPVVSCGHCYPCSVGRPNVCTQLQVIGVHRDGGFSDYACVPAKNAWRIPEAISDRQATMVEPFTIAANITAQLQPTAQDIALVYGAGPMGLTIIQALKGVYGVKQVIVVDRIAERLQMARENGADLTLDNTDQPLAEQLAQRQLAPTLVIDAACHPAILQEAILLASPAARIGILGFSGEASTLTQQSITSKEISIFSSRLNSGRFPLVIDWMEKGLIRPEALITHCMPLEQVKEAMEIFANDRKTCCKVLLQLG,not soluble
